Test results published in patent US20250277044A1 (published 2025).
Blank lines part the entries; values can stand above or below the binder they belong to.

Assays:
[1] = target: T1, recombinant human 4-1BB (Sino Biological Inc., catalog number 10041-H08H) (human, UniProt Q07011 24-186); test: ELISA; FIG. 6
[2] = target: T1, recombinant human 4-1BB (Sino …); test: ELISA; FIG. 2
[3] = target: T1, recombinant human 4-1BB (Sino …); test: ELISA; FIG. 6; remark: listed apart in the source
[4] = target: T1, recombinant human 4-1BB (Sino …); test: competition ELISA; blocking of 4-1BB/4-1BBL

- EC50 [1]: 0.087 nM
- EC50 [2]: 0.087 nM
B1: Urelumab (a patent sequence from WO2004010947) (antibody, V domains shown)
VH: QVQLQQWGAGLLKPSETLSLTCAVYGGSFSGYYWSWIRQSPEKGLEWIGEINHGGYVTYNPSLESRVTISVDTSKNQFSLKLSSVTAADTAVYYCARDYGPGNYDWYFDLWGRGTLVTVSS
VL: EIVLTQSPATLSLSPGERATLSCRASQSVSSYLAWYQQKPGQAPRLLIYDASNRATGIPARFSGSGSGTDFTLTISSLEPEDFAVYYCQQRSNWPPALTFGGGTKVEIK

- EC50 [3]: 0.086 nM
- EC50 [4]: 14 nM
B2: humanized anti-human 4-1BB monoclonal antibody BH3145b (antibody, V domains shown)
VH: QVQLVQSGAEVKKPGSSVKVSCKASGYTFTSYWINWVRQAPGQGLEWMGNIYPSDSYTNYNQKFKDRVTITADKSTSTAYMELSSLRSEDTAVYYCARLYYGSSPFDYWGQGTTVTVSS
VL: DIQMTQSPSSLSASVGDRVTITCRASQDISNYLNWYQQKPGKVPKLLIYHTSRLHSGVPSRFSGSGSGTDFTLTISSLQPEDVATYYCQQGHTLPRTFGGGTKVEIKR
